From US20250243286A1 (SIXPEAKS BIO, published 2025)
Read-outs that look alike come from different tables or passages of the source.

T1: human ActRIIB (human, UniProt Q13705 19-137, limits assumed)
T1 construct: antigen in MSD-SET; also called ACVR2B; ActR2B
T1 sequence: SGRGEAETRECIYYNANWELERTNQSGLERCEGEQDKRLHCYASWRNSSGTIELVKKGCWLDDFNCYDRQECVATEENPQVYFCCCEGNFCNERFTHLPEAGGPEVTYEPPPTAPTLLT


Experiments:
human ActRIIB [1] = biological target: T1, human ActRIIB; test: MSD-SET
human ActRIIA = biological target: T2, human ActRIIA (human, UniProt P27037 20-135, limits assumed); test: MSD-SET
T2 construct: antigen in MSD-SET; also called ACVR2A; ActR2A
T2 sequence (P27037 20-135 limits assumed): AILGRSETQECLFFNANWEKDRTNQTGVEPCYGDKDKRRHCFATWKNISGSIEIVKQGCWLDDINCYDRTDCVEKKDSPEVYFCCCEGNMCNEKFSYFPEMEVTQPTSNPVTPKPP

[2] = biological target: T3, ActRIIA and ActRIIB (on TGFB/SMAD SBE Reporter HEK293 cells) (human); test: cell-based or functional assay
human ActRIIB [3] = biological target: T1, human ActRIIB; test: MSD-SET; remark: listed apart in the source
[4] = biological target: T3, ActRIIA and ActRIIB (on TGFB/SMAD SBE …); test: cell-based or functional assay; remark: listed apart in the source

Row | IC50, Activin SMAD RGA [4] | IC50, Myostatin SMAD RGA [4] | IC90, Activin SMAD RGA [4] | IC90, Myostatin SMAD RGA [4] | Binder | further results
1 |  |  |  |  | Antibody Hutzelbrot (antibody, V domains shown, full-length IgG) VH: QVQLVQSGAEVKKPGASVKVSCKASGYTFTSSYINWVRQAPGQGLEWMGTINAVSGSTSYAQKFQGRVTMTRDTSISTAYMELSRLRSDDTAVYYCARGGWFDYWGQGTLVTVSS VL: QSALTQPASVSGSPGQSITISCTGTSSDVGSKNYVNWYQQHPGKAPKLMIYGVSKRQSGVSNRFSGSKSGNTASLTISGLQAEDEADYYCGTFAGGDYYGVFGGGTKLTVL | Kd (human ActRIIB [1]): 0.01 nM; Kd (human ActRIIA): 0.021 nM; IC50, Activin SMAD RGA [2]: 0.422 nM; IC50, Myostatin SMAD RGA [2]: 0.73 nM; IC90, Activin SMAD RGA [2]: 3.62 nM; IC90, Myostatin SMAD RGA [2]: 3.06 nM
2 |  |  |  |  | Ofaschlupfer, Mouse IgG2a-PALALA (antibody, V domains shown, mouse IgG2a constant region with PALALA) VH: QVQLVQSGAEVKKPGSSVKVSCKASGYTFTSSYINWVRQAPGQGLEWMGTINAVSGSTSYAQKFQGRVTITADTSTSTAYMELSSLRSEDTAVYYCARGGWFDYWGQGTLVTVSS VL: QSALTQPRSVSGSPGQSVTISCTGTSSDVGSKNYVNWYQQHPGKAPKLMIYGVSKRESGVPDRFSGSKSGNTASLTISGLQAEDEADYYCGTFAGGKYYGVFGGGTKLTVL | Kd (human ActRIIB [3]): 0.004 nM
3 | 0.573 nM | 0.713 nM | 3.79 nM | 7.72 nM | Antibody Metzelsupp (antibody, V domains shown) VH: QVQLVQSGAEVKKPGSSVKVSCKASGYTFTSSYINWVRQAPGQGLEWMGTINAVSGSTSYAQKFQGRVTITADTSTSTAYMELSSLRSEDTAVYYCARGGWFDYWGQGTLVTVSS VL: QSALTQPRSVSGSPGQSVTISCTGTSSDVGSFNYVNWYQQHPGKAPKLMIRGVSKRESGVPDRFSGSKSGNTASLTISGLQAEDEADYYCGTFAGGAYYGVFGGGTKLTVL | 
4 | 1.83 nM | 1.42 nM | 6.72 nM | 13.4 nM | Antibody Mauldascha (antibody, V domains shown) VH: QVQLVQSGAEVKKPGSSVKVSCKASGYTFTSSYINWVRQAPGQGLEWMGTINAVSGSTSYAQKFQGRVTITADESTSTAYMELSSLRSEDTAVYYCARGGWFDYWGQGTLVTVSS VL: QSALTQPRSVSGSPGQSVTISCTGTSSDVGSYNYVNWYQQHPGKAPKLMIYGVSKRESGVPDRFSGSKSGNTASLTISGLQAEDEADYYCGTFAGGKYYGVFGGGTKLTVL | 
5 | 0.668 nM | 1.31 nM | 5.11 nM | 18.2 nM | Antibody Rauchfloisch (antibody, V domains shown) VH: QVQLVQSGAEVKKPGSSVKVSCKASGYTFTSSYINWVRQAPGQGLEWMGTINAVSGSTSYAQKFQGRVTITADTSTSTAYMELSSLRSEDTAVYYCARGGWFDYWGQGTLVTVSS VL: QSALTQPRSVSGSPGQSVTISCTGTSSDVGSRNYVNWYQQHPGKAPKLMIYGVSKRESGVPDRFSGSKSGNTASLTISGLQAEDEADYYCGTFAGGDYYGVFGGGTKLTVL | 
6 | 0.338 nM | 0.473 nM | 4.74 nM | 18.2 nM | Antibody Seela (antibody, V domains shown) VH: QVQLVQSGAEVKKPGSSVKVSCKASGYKFTSSYINWVRQAPGQGLEWMGTINAVSGSTSYAQKFQGRVTITADTSTSTAYMELSSLRSEDTAVYYCARGGWFDYWGQGTLVTVSS VL: QSALTQPRSVSGSPGQSVTISCTGTSSDVGSKNYVNWYQQHPGKAPKHMIYGVSKRESGVPDRFSGSKSGNTASLTISGLQAEDEADYYCGTFAGGKYYGVFGGGTKLTVL | 
7 | 0.253 nM | 0.25 nM | 3.96 nM | 14.8 nM | Antibody Wiebela (antibody, V domains shown) VH: QVQLVQSGAEVKKPGSSVKVSCKASGYKFTSSYINWVRQAPGQGLEWMGTINAVSGSTSYAQKFQGRVTITADTSTSTAYMELSSLRSEDTAVYYCARGGWFDYWGQGTLVTVSS VL: QSALTQPRSVSGSPGQSVTISCTGTSSDVGSKNYVNWYQQHPGKAPKLMIYGVSKRESGVPDRFSGSKSGNTASLTISGLQAEDEADYYCGTFAGGKYYGVFGGGTKLTVL | 
8 | 0.505 nM | 1.32 nM | 3.81 nM | 27.3 nM | Antibody Nonnafürzla (antibody, V domains shown) VH: QVQLVQSGAEVKKPGSSVKVSCKASGYTFTSSYINWVRQAPGQGLEWMGTINAVSGSTSYAQKFQGRVTITADTSTSTAYMELSSLRSEDTAVYYCARGGWFDYWGQGTLVTVSS VL: QSALTQPRSVSGSPGQSVTISCTGTSSDVGSYNYVNWYQQHPGKAPKLMIYGVSKRDSGVPDRFSGSKSGNTASLTISGLQAEDEADYYCGTFAGGKYYGVFGGGTKLTVL | 
9 | 0.312 nM | 0.624 nM | 2.52 nM | 19.1 nM | Antibody Schnitzbrot (antibody, V domains shown) VH: QVQLVQSGAEVKKPGSSVKVSCKASGYKFTSSYINWVRQAPGQGLEWMGTINAVSGSTSYAQKFQGRVTITADTSTSTAYMELSSLRSEDTAVYYCARGGWFDYWGQGTLVTVSS VL: QSALTQPRSVSGSPGQSVTISCTGTSSDVGSYNYVNWYQQHPGKAPKLMIYGVSKRDSGVPDRFSGSKSGNTASLTISGLQAEDEADYYCGTFAGGKYYGVFGGGTKLTVL | 
10 | 0.299 nM | 2.84 nM | 4.92 nM | 48.4 nM | Antibody Peitscheschdegga (antibody, V domains shown) VH: QVQLVQSGAEVKKPGSSVKVSCKASGYKFTSSYINWVRQAPGQGLEWMGTINAVSGSTSYAQKFQGRVTITADTSTSTAYMELSSLRSEDTAVYYCARGGWFDYWGQGTLVTVSS VL: QSALTQPRSVSGSPGQSVTISCTGTSSDVGSKNYVNWYQQHPGKAPKLMIHGVSKRESGVPDRFSGSKSGNTASLTISGLQAEDEADYYCGTFAGGKYYGVFGGGTKLTVL | 
11 | 0.361 nM | 0.96 nM | 3.06 nM | 16.8 nM | Antibody Oierspätzla (antibody, V domains shown) VH: QVQLVQSGAEVKKPGSSVKVSCKASGYTFTSSYINWVRQAPGQGLEWMGTINPVSGSTSYAQKFQGRVTITADTSTSTAYMELSSLRSEDTAVYYCARGGWFDYWGQGTLVTVSS VL: QSALTQPRSVSGSPGQSVTISCTGTSSDVGSYNYVNWYQQHPGKAPKLMIYGVSKRESGVPDRFSGSKSGNTASLTISGLQAEDEADYYCGTFAGGAYYGVFGGGTKLTVL | 
12 |  | 0.0497 nM |  | 10400 nM | Antibody Krapfa (antibody, V domains shown) VH: QVQLVQSGAEVKKPGSSVKVSCKASGHKFTSSYINWVRQAPGQGLEWMGTINAVSGSTSYAQKFQGRVTITADTSTSTAYMELSSLRSEDTAVYYCARGGWFDYWGQGTLVTVSS VL: QSALTQPRSVSGSPGQSVTISCTGTSSDVGSKNYVNWYQQHPGKAPKLMIYGVSKRESGVPDRFSGSKSGNTASLTISGLQAEDEADYYCGTFAGGKYYGVFGGGTKLTVL | 
13 | 0.542 nM | 1.46 nM | 7.83 nM | 19 nM | Antibody Zibebe (antibody, V domains shown) VH: QVQLVQSGAEVKKPGSSVKVSCKASGYKFTSSYINWVRQAPGQGLEWMGTINAVSGSTSYAQKFQGRVTITADESTSTAYMELSSLRSEDTAVYYCARGGWFDYWGQGTLVTVSS VL: QSALTQPRSVSGSPGQSVTISCTGTSSDVGSYNYVNWYQQHPGKAPKLMIYGVSKRESGVPDRFSGSKSGNTASLTISGLQAEDEADYYCGTFAGGKYYGVFGGGTKLTVL | 
14 |  |  |  |  | Ofaschlupfer, Human IgG1-PALALA (antibody, V domains shown, human IgG1 with PA-LALA (L234A/L235A/P329A), EU numbering) VH: QVQLVQSGAEVKKPGSSVKVSCKASGYTFTSSYINWVRQAPGQGLEWMGTINAVSGSTSYAQKFQGRVTITADTSTSTAYMELSSLRSEDTAVYYCARGGWFDYWGQGTLVTVSS VL: QSALTQPRSVSGSPGQSVTISCTGTSSDVGSKNYVNWYQQHPGKAPKLMIYGVSKRESGVPDRFSGSKSGNTASLTISGLQAEDEADYYCGTFAGGKYYGVFGGGTKLTVL | Kd (human ActRIIB [3]): 0.003 nM
15 | 0.304 nM | 0.516 nM | 4.37 nM | 23.4 nM | Antibody Hegemark (antibody, V domains shown) VH: QVQLVQSGAEVKKPGSSVKVSCKASGYKFTSSYINWVRQAPGQGLEWMGTINAVSGSTSYAQKFQGRVTITADTSTSTAYMELSSLRSEDTAVYYCARGGWFDYWGQGTLVTVSS VL: QSALTQPRSVSGSPGQSVTISCTGTSSDVGSKNYVNWYQQHPGKAPKLMIYGVSKRHSGVPDRFSGSKSGNTASLTISGLQAEDEADYYCGTFAGGKYYGVFGGGTKLTVL | 
16 |  |  |  |  | Ofaschlupfer, Human IgG1-PALALA-YTE (antibody, V domains shown, human IgG1 with PA-LALA (L234A/L235A/P329A) and YTE (M252Y/S254T/T256E), EU numbering) VH: QVQLVQSGAEVKKPGSSVKVSCKASGYTFTSSYINWVRQAPGQGLEWMGTINAVSGSTSYAQKFQGRVTITADTSTSTAYMELSSLRSEDTAVYYCARGGWFDYWGQGTLVTVSS VL: QSALTQPRSVSGSPGQSVTISCTGTSSDVGSKNYVNWYQQHPGKAPKLMIYGVSKRESGVPDRFSGSKSGNTASLTISGLQAEDEADYYCGTFAGGKYYGVFGGGTKLTVL | Kd (human ActRIIB [3]): 0.003 nM
17 |  |  |  |  | Antibody Pfitzauf (antibody, V domains shown, full-length IgG) VH: QVQLVQSGAEVKKPGASVKVSCKASGYTFTSSYINWVRQAPGQGLEWMGTINPVSGSTSYAQKFQGRVTMTRDTSISTAYMELSRLRSDDTAVYYCARGGWFDYWGQGTLVTVSS VL: QSALTQPASVSGSPGQSITISCTGTSSDVGSGNYVNWYQQHPGKAPKLMIYGVSKRESGVSNRFSGSKSGNTASLTISGLQAEDEADYYCGTFAGGKYYGVFGGGTKLTVL | Kd (human ActRIIB [1]): 0.008 nM; Kd (human ActRIIA): 0.052 nM; IC50, Activin SMAD RGA [2]: 0.231 nM; IC50, Myostatin SMAD RGA [2]: 0.0984 nM; IC90, Activin SMAD RGA [2]: 3.03 nM; IC90, Myostatin SMAD RGA [2]: 1.35 nM
